Results: article PMC2714985 (Journal of immunology (Baltimore, Md. : 1950), 2009)

Target: rat collagen type I (rat, UniProt P02454 152-1207; P02466 86-1125)
Assay: SPR

Sequence of rat collagen type I (P02454 152-1207, chain 1 of 2): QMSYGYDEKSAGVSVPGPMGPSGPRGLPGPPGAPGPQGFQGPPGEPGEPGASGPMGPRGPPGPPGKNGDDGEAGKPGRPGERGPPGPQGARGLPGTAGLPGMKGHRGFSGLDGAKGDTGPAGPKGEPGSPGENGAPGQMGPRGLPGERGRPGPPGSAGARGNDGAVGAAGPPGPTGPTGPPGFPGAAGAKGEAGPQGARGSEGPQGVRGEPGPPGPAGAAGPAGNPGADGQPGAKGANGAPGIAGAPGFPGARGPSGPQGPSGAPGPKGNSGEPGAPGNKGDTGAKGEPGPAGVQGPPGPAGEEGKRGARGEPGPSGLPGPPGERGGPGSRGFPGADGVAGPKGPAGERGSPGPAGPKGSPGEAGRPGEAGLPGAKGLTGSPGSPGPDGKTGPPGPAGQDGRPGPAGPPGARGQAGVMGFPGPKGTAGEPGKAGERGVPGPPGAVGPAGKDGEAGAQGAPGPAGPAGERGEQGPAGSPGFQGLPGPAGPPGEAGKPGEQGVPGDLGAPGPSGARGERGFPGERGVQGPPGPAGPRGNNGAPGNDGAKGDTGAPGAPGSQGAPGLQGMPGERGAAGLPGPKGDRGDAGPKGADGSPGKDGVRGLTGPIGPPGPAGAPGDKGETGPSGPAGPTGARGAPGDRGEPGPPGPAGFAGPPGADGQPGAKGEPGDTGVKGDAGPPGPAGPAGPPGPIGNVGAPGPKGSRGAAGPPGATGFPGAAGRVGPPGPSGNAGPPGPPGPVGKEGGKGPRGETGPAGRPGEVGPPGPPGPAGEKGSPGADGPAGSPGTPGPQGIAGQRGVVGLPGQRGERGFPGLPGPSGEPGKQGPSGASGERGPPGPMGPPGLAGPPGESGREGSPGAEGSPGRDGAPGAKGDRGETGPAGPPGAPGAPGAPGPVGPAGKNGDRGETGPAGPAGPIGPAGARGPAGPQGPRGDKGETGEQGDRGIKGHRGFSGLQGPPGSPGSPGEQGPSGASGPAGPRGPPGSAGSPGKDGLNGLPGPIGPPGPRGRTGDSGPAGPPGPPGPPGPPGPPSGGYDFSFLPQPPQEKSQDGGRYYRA
Sequence of rat collagen type I (P02466 86-1125, chain 2 of 2): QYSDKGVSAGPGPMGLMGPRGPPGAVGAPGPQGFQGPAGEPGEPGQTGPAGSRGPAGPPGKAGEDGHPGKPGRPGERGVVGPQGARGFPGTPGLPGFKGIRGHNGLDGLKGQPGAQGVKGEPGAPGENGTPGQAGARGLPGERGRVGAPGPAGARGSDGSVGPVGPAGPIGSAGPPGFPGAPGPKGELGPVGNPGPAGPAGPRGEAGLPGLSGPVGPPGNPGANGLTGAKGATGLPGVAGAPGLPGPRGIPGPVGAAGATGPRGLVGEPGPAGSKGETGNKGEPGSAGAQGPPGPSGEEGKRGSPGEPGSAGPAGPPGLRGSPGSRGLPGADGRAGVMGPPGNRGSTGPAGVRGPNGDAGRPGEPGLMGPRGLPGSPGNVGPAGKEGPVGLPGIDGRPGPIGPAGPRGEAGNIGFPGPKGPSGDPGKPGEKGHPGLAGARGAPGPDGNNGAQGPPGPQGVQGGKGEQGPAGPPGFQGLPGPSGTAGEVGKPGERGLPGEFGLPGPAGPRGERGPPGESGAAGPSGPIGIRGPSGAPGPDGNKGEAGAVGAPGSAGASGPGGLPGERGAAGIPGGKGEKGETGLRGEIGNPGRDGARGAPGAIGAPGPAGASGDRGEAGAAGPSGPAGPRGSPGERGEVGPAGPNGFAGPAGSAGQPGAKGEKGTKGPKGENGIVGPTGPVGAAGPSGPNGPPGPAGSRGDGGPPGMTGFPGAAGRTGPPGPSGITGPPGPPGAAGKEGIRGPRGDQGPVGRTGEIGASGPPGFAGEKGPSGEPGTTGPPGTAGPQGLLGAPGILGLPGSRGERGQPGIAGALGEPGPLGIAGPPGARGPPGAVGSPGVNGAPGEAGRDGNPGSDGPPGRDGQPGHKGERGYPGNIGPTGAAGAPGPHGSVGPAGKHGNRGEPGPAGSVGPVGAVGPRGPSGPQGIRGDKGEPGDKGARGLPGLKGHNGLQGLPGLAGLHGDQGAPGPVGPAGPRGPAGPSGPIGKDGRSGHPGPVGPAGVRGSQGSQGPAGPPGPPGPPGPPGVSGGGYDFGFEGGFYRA

Kd: 145 nM | koff: 0.0456 s⁻¹
B1: LAIR-1/Fc wt fusion protein (Fc fusion, human, UniProt Q6GTX8 22-165, looked up)
chain: QEEDLPRPSISAEPGTVIPLGSHVTFVCRGPVGVQTFRLERDSRSTYNDTEDVSQASPSESEARFRIDSVREGNAGLYRCIYYKPPKWSEQSDYLELLVKESSGGPDSPDTEPGSSAGPTQRPSDNSHNEHAPASQGLKAEHLY
